Reference: PMC5519978 (2017)
No end group written: not given here.

T1: hBRM-B AT-BRD (AT-hook and bromodomain of human BRM, short isoform, residues 1358-1399 and 1418-1508) (human, UniProt P51531 1358-1399; P51531 1418-1508, 15N-labelled)
T1 chain: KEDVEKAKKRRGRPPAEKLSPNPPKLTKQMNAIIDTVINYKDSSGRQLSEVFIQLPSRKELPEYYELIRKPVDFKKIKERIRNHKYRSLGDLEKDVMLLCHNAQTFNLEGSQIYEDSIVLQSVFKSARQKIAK

T2: hBRM-A AT-BRD (AT-hook and bromodomain of human BRM, long isoform, residues 1358-1508) (human, UniProt P51531 1358-1508, 15N-labelled)
T2 chain: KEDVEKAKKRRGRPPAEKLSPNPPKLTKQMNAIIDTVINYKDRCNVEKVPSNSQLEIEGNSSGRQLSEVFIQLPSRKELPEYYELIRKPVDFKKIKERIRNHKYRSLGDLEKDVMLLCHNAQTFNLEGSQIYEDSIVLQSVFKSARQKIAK

T3: BRG1 AT-BRD (AT-hook and bromodomain of human BRG1, residues 1434-1569), wild type (human, UniProt P51532 1434-1569)
T3 chain: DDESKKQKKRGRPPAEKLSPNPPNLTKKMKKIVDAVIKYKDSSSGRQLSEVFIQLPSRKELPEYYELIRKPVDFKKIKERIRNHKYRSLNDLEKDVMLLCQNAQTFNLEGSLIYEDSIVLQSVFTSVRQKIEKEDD

T4: hBRM-A BRD (human BRM bromodomain, long splice isoform, residues 1379-1508) (human, UniProt P51531 1379-1508, 15N-labelled)
T4 chain: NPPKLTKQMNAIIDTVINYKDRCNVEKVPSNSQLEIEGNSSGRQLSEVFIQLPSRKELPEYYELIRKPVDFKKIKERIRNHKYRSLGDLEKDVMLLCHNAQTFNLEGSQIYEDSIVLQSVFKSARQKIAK

B1: hBRM-B BRD (human BRM bromodomain, short splice isoform, residues 1379-1399 and 1418-1508) (domain or fragment)
chain: NPPKLTKQMNAIIDTVINYKDSSGRQLSEVFIQLPSRKELPEYYELIRKPVDFKKIKERIRNHKYRSLGDLEKDVMLLCHNAQTFNLEGSQIYEDSIVLQSVFKSARQKIAK
modifications: 15N-labelled

Assays:
[1] = molecular target: H3(23-34); assay: NMR
[2] = molecular target: B1; assay: NMR
[3] = molecular target: T1, hBRM-B AT-BRD (AT-hook and bromodomain …); assay: NMR; Kd,obs, AT-BRD pre-bound to DNAI
[4] = molecular target: T2, hBRM-A AT-BRD (AT-hook and bromodomain …); assay: NMR
[5] = molecular target: T3, BRG1 AT-BRD (AT-hook and bromodomain of …); assay: NMR
[6] = molecular target: T4, hBRM-A BRD (human BRM bromodomain, long …); assay: NMR
[7] = molecular target: T1, hBRM-B AT-BRD (AT-hook and bromodomain …); assay: NMR
[8] = molecular target: T1, hBRM-B AT-BRD (AT-hook and bromodomain …); assay: NMR; pre-bound to DNAI

Kd [2]	Kd [4]	Kd [5]	Binder	also measured
			B1	Kd [1]: > 16 mM
> 7 mM			QTARKSTGGKAPRKQLATK [H3(5-23) histone peptide, unmodified]	
	0.81 mM	0.94 mM	KSTGGK(Ac)APRKQ [H3(9-19)K14ac histone peptide]	Kd [3]: 1.12 mM; Kd [6]: 0.88 mM; Kd [7]: 0.76 mM; Kd [8]: 1.12 mM
2.4 mM			AKRHRK(Ac)VLRDN [H4(15-25)K20ac histone peptide]	
3.5 mM			KQLATK(Ac)AARKS [H3(18-28)K23ac histone peptide]	
> 7 mM	> 35 mM	> 3 mM	KAARK(Ac)SAPATGG [H3(23-34)K27ac histone peptide]	
